Experimental findings from patent US20210363204A1 are described below.

Among the targets are human Nav1.6 (human) (UniProt Q9UQD0); human Nav1.5 (human) (UniProt Q14524); human Nav1.7 (human) (UniProt Q15858).
Assay in all cases: cell-based or functional assay

As to recombinant Protoxin-II (peptide), in the assay with human Nav1.6 (human), the IC50, QPatch electrophysiology assay is 6.2e-08 M and the ratio of IC50 for Nav1.6 to IC50 for Nav1.7, QPatch is 28 fold.

The substance “recombinant Protoxin-II NV1D12 (peptide)” gave a hNav1.5 QPatch IC50 in the assay with human Nav1.5 (human) above 1000 nM.

In the case of wild type Protoxin-II (peptide), in the assay with human Nav1.7 (human), the IC50, FLIPR Tetra membrane depolarization assay came out at 4 nM.
